Reference: PMC10445101, “A neutralizable dimeric anti-thrombin aptamer with potent anticoagulant activity in mice”

Key:
alpha-thrombin (mouse) [1] = target: T1, alpha-thrombin (mouse) (Mus musculus, UniProt P19221;P19221 312-360;361-618); assay: SPR; SPR (Biacore X100, CM5, single-cycle kinetics, 1:1 fit): PBS pH 7.4, 0.05% (v/v) Tween 20; aptamers annealed in PBS (95 to 25 C); 1 M NaCl regeneration; assay temperature not stated; settings: protein: commercial, copies: 1;1
alpha-thrombin (human) [2] = target: T2, alpha-thrombin (human) (Homo sapiens, UniProt P00734;P00734 315-363;364-622); assay: SPR; SPR (Biacore X100, CM5, single-cycle kinetics, 1:1 fit): PBS pH 7.4, 0.05% (v/v) Tween 20; aptamers annealed in PBS (95 to 25 C); 1 M NaCl regeneration; assay t
alpha-thrombin (mouse) [3] = target: T1, alpha-thrombin (mouse); assay: SPR; 1:1 approximation; SPR (Biacore X100, CM5, single-cycle kinetics, 1:1 fit): PBS pH 7.4, 0.05% (v/v) Tween 20; aptamers annealed in PBS (95 to 25 C); 1 M NaCl regeneration; assay temperature not stated; settings: protein: commercial; copies: 1;1; pseudo-circular, 17 bp duplex linker
alpha-thrombin (human) [4] = target: T2, alpha-thrombin (human); assay: SPR; 1:1 approximation; SPR (Biacore X100, CM5, single-cycle kinetics, 1:1 fit): PBS pH 7.4, 0.05% (v/v) Tween 20; aptamers annealed in PBS (95 to 25 C); 1 M NaCl regeneration; assay t

Work on AGGTCAGATGATGGGGATGGGGGGTTGGAGGAATGGATGACCT (structured_DNA) [M08s-1 (M08s)] yielded a Kd (alpha-thrombin (mouse) [1]; predicted G4 with stem) of 495 nM and a Kd (alpha-thrombin (human) [2]) of 47.2 nM.

B1: Pse08-29 (M08s-ds17-TBA29) (structured_DNA)
DNA: GTCACTAGAGGTCAGATGATGGGGATGGGGGGTTGGAGGAATGGATGACCTCTAGTGACTGATTTACGAGTCCGTGGTAGGGCAGGTTGGGGTGACTCGTAAATCA
Work on B1 yielded a Kd (alpha-thrombin (mouse) [3]) of 6.3 nM and a Kd (alpha-thrombin (human) [4]) of 2.6 nM.

B2: Pse08-08 (M08s-ds17-M08s) (structured_DNA)
DNA: GTCACTAGAGGTCAGATGATGGGGATGGGGGGTTGGAGGAATGGATGACCTCTAGTGACTGATTTACGAGGTCAGATGATGGGGATGGGGGGTTGGAGGAATGGATGACCTCGTAAATCA
B2 was tested, and the Kd (alpha-thrombin (mouse) [1]; pseudo-circular, 17 bp duplex linker) was 4.2 nM and the Kd (alpha-thrombin (human) [2]) was 0.4 nM.

In the case of AGTCCGTGGTAGGGCAGGTTGGGGTGACT (structured_DNA) [TBA29 (HD22)], the Kd (alpha-thrombin (mouse) [1]) is reported as 22 nM and the Kd (alpha-thrombin (human) [2]) is reported as 36.9 nM.
